The text below walks through data of patent US20100215656A1.

Assay [1] concerns the target CD22 (human) (UniProt P20273). The assay is described as follows: cell-based or functional assay.
For assay [2], the target named is mesothelin (UniProt Q13421). The assay is described as follows: cell-based or functional assay.
Chain of UniProt Q13421 (Q13421 other isoform, or with tags, fused parts or gaps limits assumed): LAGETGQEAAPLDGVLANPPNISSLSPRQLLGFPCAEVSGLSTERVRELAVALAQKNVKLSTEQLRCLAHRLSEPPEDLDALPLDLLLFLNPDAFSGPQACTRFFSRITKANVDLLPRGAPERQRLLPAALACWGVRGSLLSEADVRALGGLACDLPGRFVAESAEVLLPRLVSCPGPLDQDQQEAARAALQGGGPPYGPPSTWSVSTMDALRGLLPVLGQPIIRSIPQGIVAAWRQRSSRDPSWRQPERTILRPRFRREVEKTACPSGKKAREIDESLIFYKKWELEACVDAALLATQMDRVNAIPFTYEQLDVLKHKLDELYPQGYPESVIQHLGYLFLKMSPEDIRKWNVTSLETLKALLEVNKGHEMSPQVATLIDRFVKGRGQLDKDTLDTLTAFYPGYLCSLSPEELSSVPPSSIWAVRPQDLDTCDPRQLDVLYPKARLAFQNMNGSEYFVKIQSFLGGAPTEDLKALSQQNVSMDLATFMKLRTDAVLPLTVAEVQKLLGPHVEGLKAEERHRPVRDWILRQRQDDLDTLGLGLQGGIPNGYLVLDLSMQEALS

Chain of UniProt P20273 (P20273 20-847): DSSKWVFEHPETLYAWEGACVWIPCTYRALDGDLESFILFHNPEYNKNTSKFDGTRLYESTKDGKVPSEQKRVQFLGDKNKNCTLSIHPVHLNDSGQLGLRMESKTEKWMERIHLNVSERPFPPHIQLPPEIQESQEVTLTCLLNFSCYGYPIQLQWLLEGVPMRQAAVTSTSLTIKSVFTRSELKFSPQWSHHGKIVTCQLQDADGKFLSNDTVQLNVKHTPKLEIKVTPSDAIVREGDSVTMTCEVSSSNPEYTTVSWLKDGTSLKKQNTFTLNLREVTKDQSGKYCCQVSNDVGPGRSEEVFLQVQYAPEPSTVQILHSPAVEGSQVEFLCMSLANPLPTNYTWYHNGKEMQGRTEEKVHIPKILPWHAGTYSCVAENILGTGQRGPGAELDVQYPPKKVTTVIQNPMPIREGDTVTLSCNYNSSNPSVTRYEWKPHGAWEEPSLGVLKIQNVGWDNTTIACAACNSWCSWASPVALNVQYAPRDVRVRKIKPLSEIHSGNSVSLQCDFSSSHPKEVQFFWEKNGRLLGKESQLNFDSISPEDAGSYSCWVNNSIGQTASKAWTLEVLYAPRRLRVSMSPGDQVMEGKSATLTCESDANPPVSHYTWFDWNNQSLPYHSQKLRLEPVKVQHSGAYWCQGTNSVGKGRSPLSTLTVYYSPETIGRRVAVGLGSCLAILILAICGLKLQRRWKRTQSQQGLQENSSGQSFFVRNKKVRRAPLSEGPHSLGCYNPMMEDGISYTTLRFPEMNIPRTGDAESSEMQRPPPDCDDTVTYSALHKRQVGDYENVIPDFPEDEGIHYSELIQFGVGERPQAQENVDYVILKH

In assay [1], “HA22-LR (anti-CD22 dsFv of HA22 fused to the 25-kDa lysosome-resistant PE fragment, PE25 / PE-LR)” returned a Relative Activity (against HA22) on CA46 cells of 1.15, a Relative Activity (against HA22) on Daudi cells of 1.12, a Relative Activity (against HA22) on KOPN-8 cells of 0.22 and a Relative Activity (against HA22) on Raji cells of 0.49. Besides, in assay [1], the Relative Activity (against HA22) on Ramos cells worked out at 0.91; the Relative Activity (against HA22) on WSU-CLL cells came to 2.12; the Relative Activity (against HA22), cell death, CLL #1 was determined as 16.2; the Relative Activity (against HA22), cell death, CLL #2 came to 7.65. In assay [1], this substance came in with a Relative Activity (against HA22), cell death, HCL #2 of 0.08; a Relative Activity (against HA22), cell death, HCL #3 of 1.39; a Relative Activity (against HA22), protein synthesis, CLL #1 above 210; a Relative Activity (against HA22), protein synthesis, CLL #2 above 16.8. Besides, in assay [1], the Relative Activity (against HA22), protein synthesis, CLL #3 is 2.07; the Relative Activity (against HA22), protein synthesis, CLL #4 stood at 51.8; the Relative Activity (against HA22), protein synthesis, CLL #5 is 2.16; the Relative Activity (against HA22), protein synthesis, HCL #1 was found to be 0.88. In assay [1], this substance returned a Relative Activity (against HA22), protein synthesis, HCL #2 of 0.14; a Relative Activity (against HA22), protein synthesis, HCL #3 above 1.76; an inhibition of protein synthesis at 1 ng/ml, patient cells CLL #2 of 55%.

For “SS1-PE-LR (antibody SS1 fused to the PE used in HA22-LR)”, in assay [2], the IC50 (ng/ml), cytotoxicity on A431/K5 cells stood at 1.19 ng/mL; the IC50 (ng/ml), cytotoxicity on A1847 cells (*Incomplete cell killing) was 4.24 ng/mL; the IC50 (ng/ml), cytotoxicity on HAY cells came to 1.22 ng/mL; the IC50 (ng/ml), cytotoxicity on KB31 cells (*Incomplete cell killing) is above 1000 ng/mL. Further, in assay [2], the IC50 (ng/ml), cytotoxicity on L55 cells came out at 3.87 ng/mL; the IC50 (ng/ml), cytotoxicity on OVCAR-8 cells (*Incomplete cell killing) was determined as 4.29 ng/mL; the Relative Activity (against the PE38 immunotoxin) on A431/K5 cells turned out to be 0.17; the Relative Activity (against the PE38 immunotoxin) on A1847 cells came to 0.96. In assay [2], this substance came in with a Relative Activity (against the PE38 immunotoxin) on HAY cells of 3.72, a Relative Activity (against the PE38 immunotoxin) on KB31 cells (fold decrease) above 200, a Relative Activity (against the PE38 immunotoxin) on L55 cells of 1.23 and a Relative Activity (against the PE38 immunotoxin) on OVCAR-8 cells of 0.54.

In assay [2], SS1P (antibody SS1 fused to PE38) displayed an IC50 (ng/ml), cytotoxicity on A431/K5 cells of 0.2 ng/mL; an IC50 (ng/ml), cytotoxicity on A1847 cells of 4.06 ng/mL; an IC50 (ng/ml), cytotoxicity on HAY cells of 4.54 ng/mL; an IC50 (ng/ml), cytotoxicity on KB31 cells of 5.15 ng/mL. Moreover, in assay [2], the IC50 (ng/ml), cytotoxicity on L55 cells was found to be 4.77 ng/mL and the IC50 (ng/ml), cytotoxicity on OVCAR-8 cells was found to be 2.32 ng/mL.
